Measured values taken from the Human Domainome abundance scans (Beltran et al. 2025).
± gives the uncertainty stated by the source.

B1: Heterogeneous nuclear ribonucleoprotein U-like protein 2, residues 1 to 40; numbered along this chain, Q1KMD3 (parent)
chain: MEVKRLKVTELRSELQRRGLDSRGLKVDLAQRLQEALDAE
B2: Tripartite motif-containing protein 6, residues 93 to 134; numbered along this chain, Q9C030 (parent)
chain: KAVLCADHGEKLQLFCQEDGKVICWLCERSQEHRGHHTFLVE

Variants of: B1
Test: abundance fitness (aPCA) (normalised: wild type 0, dead -1); higher = more abundant; growth selection in yeast, the domain comes from the species named
Conditions: Homo sapiens

| Variant | abundance fitness |
| --- | --- |
| K26I | -0.117 ± 0.089 |
| E35N | -0.036 ± 0.096 |
| Q34V | -0.413 ± 0.058 |
| Q34M | -0.283 ± 0.064 |
| R32I | -1.08 ± 0.2 |
| T9W | -0.103 ± 0.06 |
| L37D | -0.24 ± 0.064 |
| D38N | 0.113 ± 0.17 |
| D38Q | -0.244 ± 0.089 |
| V8W | -0.435 ± 0.056 |
| V27D | 0.037 ± 0.074 |
| A39H | -0.026 ± 0.12 |
| A39P | -0.272 ± 0.12 |
| L29T | -0.083 ± 0.17 |
| L11N | -0.435 ± 0.091 |
| D28K | -0.129 ± 0.073 |
| D28Q | -0.139 ± 0.066 |

Variants of: B2
Test: as above
Conditions: Homo sapiens

| Variant | abundance fitness |
| --- | --- |
| F39T | 0.111 ± 0.095 |
| F39M | 0.01 ± 0.15 |
| F39W | -0.149 ± 0.13 |
| F39A | 0.165 ± 0.058 |
| F39K | 0.435 ± 0.26 |
| F39V | 0.117 ± 0.061 |
| F39Q | 0.139 ± 0.078 |
| F39Y | 0.161 ± 0.19 |
| F39G | 0.093 ± 0.053 |
| F39P | -0.487 ± 0.36 |
| F39N | 0.041 ± 0.11 |
| F39R | 0.19 ± 0.061 |
| G35P | -0.366 ± 0.1 |
| G35V | -0.41 ± 0.064 |
| G35R | -0.195 ± 0.053 |
| G35W | -0.377 ± 0.061 |
| G35A | -0.116 ± 0.05 |
| G35D | 0.022 ± 0.15 |
| G35S | -0.096 ± 0.058 |
| G35L | -0.202 ± 0.065 |
| G35M | -0.397 ± 0.094 |
| G35K | -0.244 ± 0.19 |
| G35T | -0.079 ± 0.073 |
| G35I | -0.377 ± 0.38 |
| G35Q | -0.215 ± 0.074 |

| Variant | abundance fitness |
| --- | --- |
| R29M | -0.121 ± 0.098 |
| R29L | -0.175 ± 0.082 |
| R29H | 0.051 ± 0.19 |
| R29Y | -0.24 ± 0.16 |
| R29S | -0.289 ± 0.082 |
| R29V | -0.299 ± 0.074 |
| R29K | -0.05 ± 0.073 |
| R29D | -0.268 ± 0.15 |
| R29Q | -0.164 ± 0.074 |
| R29E | -0.094 ± 0.074 |
| R29G | -0.189 ± 0.066 |
| R29F | -0.458 ± 0.33 |
| R29I | -0.207 ± 0.11 |
| S30Q | 0.022 ± 0.11 |
| S30K | -0.307 ± 0.11 |
| S30Y | -0.313 ± 0.13 |
| S30N | -0.142 ± 0.093 |
| S30C | -0.104 ± 0.11 |
| S30P | -0.7 ± 0.13 |
| S30G | -0.135 ± 0.042 |
| S30D | 0.002 ± 0.39 |
| S30I | 0.167 ± 0.39 |
| S30F | -0.575 ± 0.18 |
| S30T | -0.15 ± 0.18 |
| S30E | -0.148 ± 0.066 |

| Variant | abundance fitness |
| --- | --- |
| S30W | -0.686 ± 0.11 |
| S30M | 0.026 ± 0.081 |
| S30A | -0.016 ± 0.063 |
| S30R | -0.168 ± 0.061 |
| S30H | -0.209 ± 0.23 |
| H33R | -0.364 ± 0.087 |
| H33C | -0.246 ± 0.36 |
| H33S | -0.28 ± 0.15 |
| H33T | -0.685 ± 0.26 |
| H33P | -0.771 ± 0.43 |
| H33M | -0.549 ± 0.11 |
| H33A | -0.392 ± 0.1 |
| H33G | -0.643 ± 0.1 |
| H33W | -0.804 ± 0.15 |
| Q31H | -0.125 ± 0.083 |
| Q31D | -0.228 ± 0.14 |
| Q31S | -0.031 ± 0.084 |
| Q31C | -0.095 ± 0.12 |
| Q31E | -0.159 ± 0.08 |
| Q31W | -0.593 ± 0.09 |
| Q31M | -0.057 ± 0.07 |
| Q31V | 0.004 ± 0.074 |
| Q31G | -0.083 ± 0.055 |
| Q31L | -0.343 ± 0.088 |
| Q31Y | -0.371 ± 0.27 |

| Variant | abundance fitness |
| --- | --- |
| Q31K | -0.103 ± 0.11 |
| Q31T | -0.045 ± 0.073 |
| Q31A | -0.121 ± 0.049 |
| Q31P | -0.167 ± 0.13 |
| L40E | 0.009 ± 0.19 |
| L40H | -0.062 ± 0.14 |
| L40K | -0.154 ± 0.2 |
| L40G | 0.052 ± 0.076 |
| L40W | -0.112 ± 0.14 |
| L40N | 0.115 ± 0.13 |
| L40A | 0.169 ± 0.073 |
| L40T | 0.041 ± 0.085 |
| L40M | 0.207 ± 0.1 |
| L40Q | 0.224 ± 0.12 |
| L40D | 0.091 ± 0.17 |
| L40C | -0.188 ± 0.13 |
| L40P | 0.11 ± 0.077 |
| L40V | -0.072 ± 0.068 |
| H36Q | -0.303 ± 0.13 |
| H36D | -0.399 ± 0.11 |
| H36Y | -1.03 ± 0.34 |
| H36M | -0.606 ± 0.15 |
| H36S | -0.365 ± 0.077 |
| H36A | -0.472 ± 0.055 |
| H36K | -0.558 ± 0.096 |

| Variant | abundance fitness |
| --- | --- |
| H36R | -0.481 ± 0.052 |
| H36W | -0.781 ± 0.071 |
| H36G | -0.442 ± 0.047 |
| H36E | -0.355 ± 0.072 |
| H36L | -0.523 ± 0.074 |
| R34A | -0.007 ± 0.062 |
| R34L | 0.092 ± 0.083 |
| R34K | -0.111 ± 0.084 |
| R34F | 0.058 ± 0.23 |
| R34H | 0.102 ± 0.062 |
| R34Q | -0.041 ± 0.074 |
| R34G | -0.161 ± 0.055 |
| R34M | -0.052 ± 0.17 |
| R34E | -0.05 ± 0.076 |
| R34Y | 0.155 ± 0.1 |
| R34V | 0.035 ± 0.053 |
| R34P | -0.386 ± 0.14 |
| R34S | -0.035 ± 0.068 |
| R34T | 0.071 ± 0.072 |
| R34C | -0.14 ± 0.07 |
| R34N | -0.058 ± 0.12 |
| V41S | -0.051 ± 0.076 |
| V41M | -0.143 ± 0.16 |
| V41N | 0.041 ± 0.17 |
| V41L | -0.034 ± 0.37 |

| Variant | abundance fitness |
| --- | --- |
| V41I | -0.246 ± 0.13 |
| V41A | 0.16 ± 0.054 |
| V41T | 0.064 ± 0.072 |
| V41W | -0.043 ± 0.076 |
| V41R | 0.149 ± 0.057 |
| V41Q | 0.259 ± 0.1 |
| V41G | -0.11 ± 0.088 |
| V41P | 0.036 ± 0.13 |
| V41C | -0.165 ± 0.099 |
| V41E | 0.029 ± 0.094 |
| E42C | -0.426 ± 0.22 |
| E42T | 0.216 ± 0.23 |
| E42D | 0.094 ± 0.16 |
| E42Y | -0.421 ± 0.21 |
| E42A | -0.852 ± 0.45 |
| H37I | -0.032 ± 0.29 |
| H37R | 0.002 ± 0.079 |
| H37S | -0.123 ± 0.17 |
| H37C | -0.17 ± 0.13 |
| H37V | -0.265 ± 0.46 |
| H37W | -0.503 ± 0.13 |
| H37L | -0.431 ± 0.2 |
| H37F | 0.117 ± 0.2 |
| T38E | -0.265 ± 0.43 |
| T38G | -0.177 ± 0.12 |
